Target: T1, human oncostatin M receptor beta (OSMRβ) (human, UniProt Q99650 28-979)
T1 sequence (looked up): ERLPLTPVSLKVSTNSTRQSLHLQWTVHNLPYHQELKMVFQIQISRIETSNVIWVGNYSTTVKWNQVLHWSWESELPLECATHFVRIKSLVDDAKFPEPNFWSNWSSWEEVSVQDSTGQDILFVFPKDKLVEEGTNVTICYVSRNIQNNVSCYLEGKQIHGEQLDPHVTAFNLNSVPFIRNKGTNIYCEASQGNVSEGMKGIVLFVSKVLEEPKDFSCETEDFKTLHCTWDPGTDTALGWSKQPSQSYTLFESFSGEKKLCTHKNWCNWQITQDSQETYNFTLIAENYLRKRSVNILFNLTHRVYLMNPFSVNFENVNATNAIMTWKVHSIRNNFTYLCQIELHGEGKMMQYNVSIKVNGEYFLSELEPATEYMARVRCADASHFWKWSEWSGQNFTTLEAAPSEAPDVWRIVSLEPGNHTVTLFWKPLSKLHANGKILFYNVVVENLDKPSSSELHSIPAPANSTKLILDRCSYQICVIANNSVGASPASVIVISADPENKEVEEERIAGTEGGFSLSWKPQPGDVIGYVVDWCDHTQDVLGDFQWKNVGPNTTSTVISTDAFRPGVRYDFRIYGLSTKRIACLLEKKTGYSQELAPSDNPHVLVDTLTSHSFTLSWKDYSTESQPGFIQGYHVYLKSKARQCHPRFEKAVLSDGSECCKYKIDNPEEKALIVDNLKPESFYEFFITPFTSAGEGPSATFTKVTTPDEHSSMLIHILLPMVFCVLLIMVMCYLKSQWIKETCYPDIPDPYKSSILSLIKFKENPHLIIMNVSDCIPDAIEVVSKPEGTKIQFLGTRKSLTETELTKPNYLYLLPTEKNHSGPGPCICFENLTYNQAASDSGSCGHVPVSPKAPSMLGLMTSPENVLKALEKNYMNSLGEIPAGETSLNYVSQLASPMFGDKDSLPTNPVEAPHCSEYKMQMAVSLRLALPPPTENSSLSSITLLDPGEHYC
Test: cell-based or functional assay

B1: vixarelimab (antibody, human IgG4 S228P, lambda, N297Q, V domains shown)
VH: QVQLVQSGAEVKKPGASVKVSCKASGYTFTSYEINWVRQATGQGLEWMGWMNPNSGYTGYAQKFQGRVTMTRDTSISTAYMEMSSLRSEDTAVYYCARDIVAANTDYYFYYGMDVWGQGTTVTVSS
VL: QSVLTQPPSASGTPGQRVTISCSGSNSNIGSNTVNWYHQLPGTAPKLLIYNINKRPSGVPDRFSGSKSGSSASLAISGLQSEDEADYYCSTWDDSLDGVVFGGGTKLTVLG
  Mean of IC50, inhibition of OSM-induced STAT3 phosphorylation (pSTAT3 Tyr705, MSD); IPF-derived lung fibroblasts, [OSM] 1 ng/mL: 12.4 ng/mL
  Mean of IC50, inhibition of OSM-induced STAT3 phosphorylation (pSTAT3 Tyr705, MSD); IPF-derived lung fibroblasts, [OSM] 10 ng/mL: 56.1 ng/mL
  Mean of IC50, inhibition of OSM-induced STAT3 phosphorylation (pSTAT3 Tyr705, MSD); normal keratinocytes, [OSM] 10 ng/mL: 4.95 ng/mL
  Mean of IC50, inhibition of OSM-induced STAT3 phosphorylation (pSTAT3 Tyr705, MSD); normal keratinocytes, [OSM] 100 ng/mL: 45 ng/mL
  Mean of IC50, inhibition of OSM-induced STAT3 phosphorylation (pSTAT3 Tyr705, MSD); normal lung fibroblasts, [OSM] 1 ng/mL: 13 ng/mL
  Mean of IC50, inhibition of OSM-induced STAT3 phosphorylation (pSTAT3 Tyr705, MSD); normal lung fibroblasts, [OSM] 10 ng/mL: 88.2 ng/mL

Source: patent US20260000759A1 (Genentech, published 2026)
